The target in the assay is T1, KLK14 (UniProt Q9P0G3).
T1 sequence (looked up): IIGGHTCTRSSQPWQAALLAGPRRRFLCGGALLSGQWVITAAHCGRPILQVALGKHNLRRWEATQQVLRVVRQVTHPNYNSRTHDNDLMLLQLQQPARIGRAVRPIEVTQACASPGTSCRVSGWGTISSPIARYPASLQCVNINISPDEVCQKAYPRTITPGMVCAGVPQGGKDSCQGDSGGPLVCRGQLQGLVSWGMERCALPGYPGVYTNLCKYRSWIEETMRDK
Description: cell-based or functional assay.

We go through 1 molecule from patent publication US20210162029A1.

B1: LEKTI Domain 6 (protein)
chain: ESGKATSYAELCSEYRKLVRNGKLACTRENDPIQGPDGKVHGNTCSMCEVFFQAEEEEKKKKEGKSRN
Turning to B1, the % inhibition (mean) of KLK14 (30 nM) evoked FLIPR signal in TRPV1 cells; LEKTI D6 at 0.003 µM was -4%, the % inhibition (mean) of KLK14 (30 nM) evoked FLIPR signal in TRPV1 cells; LEKTI D6 at 0.01 µM was 21.6%, the % inhibition (mean) of KLK14 (30 nM) evoked FLIPR signal in TRPV1 cells; LEKTI D6 at 0.03 µM is -11.1% and the % inhibition (mean) of KLK14 (30 nM) evoked FLIPR signal in TRPV1 cells; LEKTI D6 at 0.1 µM turned out to be 12.4%. For the same molecule, the % inhibition (mean) of KLK14 (30 nM) evoked FLIPR signal in TRPV1 cells; LEKTI D6 at 0.3 µM stood at 16.8%, the % inhibition (mean) of KLK14 (30 nM) evoked FLIPR signal in TRPV1 cells; LEKTI D6 at 1 µM stood at 46.9%, the % inhibition (mean) of KLK14 (30 nM) evoked FLIPR signal in TRPV1 cells; LEKTI D6 at 3 µM is 56.4% and the % inhibition (mean) of KLK14 (30 nM) evoked FLIPR signal in TRPV1 cells; LEKTI D6 at 10 µM is 39.3%. Also, the % inhibition (mean) of KLK14 (30 nM) evoked FLIPR signal in TRPV4 cells; LEKTI D6 at 0.003 µM is -24.1%, the % inhibition (mean) of KLK14 (30 nM) evoked FLIPR signal in TRPV4 cells; LEKTI D6 at 0.01 µM is -11%, the % inhibition (mean) of KLK14 (30 nM) evoked FLIPR signal in TRPV4 cells; LEKTI D6 at 0.03 µM was determined as 9.9% and the % inhibition (mean) of KLK14 (30 nM) evoked FLIPR signal in TRPV4 cells; LEKTI D6 at 0.1 µM is 6.4%. In addition, the % inhibition (mean) of KLK14 (30 nM) evoked FLIPR signal in TRPV4 cells; LEKTI D6 at 0.3 µM turned out to be 1.5%, the % inhibition (mean) of KLK14 (30 nM) evoked FLIPR signal in TRPV4 cells; LEKTI D6 at 1 µM turned out to be 6.3%, the % inhibition (mean) of KLK14 (30 nM) evoked FLIPR signal in TRPV4 cells; LEKTI D6 at 3 µM amounted to 26.7% and the % inhibition (mean) of KLK14 (30 nM) evoked FLIPR signal in TRPV4 cells; LEKTI D6 at 10 µM was 73%.
